The text below walks through data of article PMC3517540, “Versatile Membrane Deformation Potential of Activated Pacsin” (PLoS ONE, 2012).

Test [1] concerns the target T1, Human full-length pacsin-1 (human, UniProt Q9BY11 1-444).
T1 construct: pacsin-1 (syndapin-1), human, full length; The His6-SUMO moiety was cleavable with Ulp-1; also called pacsin isoform 1; syndapin; source: modified pET28a expression plasmid, purified as described previously [27], [35]
Put plainly: pull-down; GST-PRD baits on GST SpinTrap resin, purified pacsin-1 prey 2 h at 4°C; 25 mM Tris-Cl pH 7.5, 100 mM NaCl; eluted with 10 mM glutathione; SDS-PAGE and Coomassie staining. The following applies: both partners purified.

The target in test [2] is T1, Human full-length pacsin-1. The experiment in a line: SEC; pacsin-1 (40 µM) and GST-PRD (80 µM) incubated for 15 min, then size-exclusion chromatography; fractions analysed by SDS-PAGE and Coomassie staining. The following applies: both partners purified.

T1 sequence (Q9BY11 whole entry, canonical isoform): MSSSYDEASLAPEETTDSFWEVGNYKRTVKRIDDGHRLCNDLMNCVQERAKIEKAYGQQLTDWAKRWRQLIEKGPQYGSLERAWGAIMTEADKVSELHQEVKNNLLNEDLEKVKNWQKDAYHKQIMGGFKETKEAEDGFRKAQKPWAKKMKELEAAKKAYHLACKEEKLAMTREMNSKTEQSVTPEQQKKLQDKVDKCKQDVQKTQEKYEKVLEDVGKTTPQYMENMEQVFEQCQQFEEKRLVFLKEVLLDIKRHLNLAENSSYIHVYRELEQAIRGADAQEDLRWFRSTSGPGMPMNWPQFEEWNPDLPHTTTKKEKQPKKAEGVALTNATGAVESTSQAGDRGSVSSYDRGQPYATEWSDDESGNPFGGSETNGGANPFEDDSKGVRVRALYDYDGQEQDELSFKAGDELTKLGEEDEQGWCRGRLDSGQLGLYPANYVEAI

B1: GST-PRD^trunc1 (mouse dynamin-1 PRD aa747-810 fused to GST) (domain or fragment, UniProt P39053 747-810, looked up)
chain: TTTVSTPMPPPVDDSWLQVQSVPAGRRSPTSSPTPQRRAPAVPPARPGSRGPAPGPPPAGSALG
notes: dynamin-1 PRD, mouse, aa747-810; also called tr1; source: purified as GST fusion protein (GSTrap, Superdex 200 SEC)
For the molecule B1, in test [1], the binding result was “binds”.

B2: Mouse dynamin-1 proline-rich domain (residues 747-842) fused to GST (domain or fragment, UniProt P39053 747-842, looked up)
chain: TTTVSTPMPPPVDDSWLQVQSVPAGRRSPTSSPTPQRRAPAVPPARPGSRGPAPGPPPAGSALGGAPPVPSRPGASPDPFGPPPQVPSRPNRAPPG
notes: dynamin-1 proline-rich domain (PRD), mouse, residues 747-842; 100% identical to the human dynamin-1 PRD; Construct from the De Camilli laboratory; also called GST-PRD; PRD^wt; source: expression vector pGEX-6P-1, purified (GSTrap, Superdex 200 SEC)
With B2, the binding result in test [2] is given as “binds”.
